Measurements as given in article PMC12416549 (2024).
Positions count from the first letter of the chain named. Names and notes keep the numbering of the source.

Biological target: T1, TNFR1 (Homo sapiens, UniProt P19438)
T1 chain: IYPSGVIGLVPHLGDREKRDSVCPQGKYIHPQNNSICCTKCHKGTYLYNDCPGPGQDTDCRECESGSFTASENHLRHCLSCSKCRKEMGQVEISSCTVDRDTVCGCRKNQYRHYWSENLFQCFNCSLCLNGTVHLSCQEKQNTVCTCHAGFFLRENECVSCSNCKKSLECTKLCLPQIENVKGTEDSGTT
Experiment: yeast display SC50

B1: K88Y (designed binder)
chain: SMEEEVEKAAKEYEKKKKEAIEKHLEKLKAKDKEAAERFLKELEEAAKEYAKDEAKTMSEEEAKRRAKKYKEKVLLSELSEEEQKEIYEAEEKLVRTILKYVEEAAK
  apparent Kd (screen): 490 pM

B2: E34V (designed binder)
chain: B1 chain with E34V, Y88K
  apparent Kd (screen): 446 pM

B3: E3S (designed binder)
chain: B1 chain with E3S, Y88K
  apparent Kd (screen): 2730 pM

B4: R38I (designed binder)
chain: B1 chain with R38I, Y88K
  apparent Kd (screen): 1400 pM

B5: S1S (designed binder)
chain: B1 chain with Y88K
  apparent Kd (screen): 539 pM

B6: L76S (designed binder)
chain: B1 chain with L76S, Y88K
  apparent Kd (screen): 4830 pM

B7: Y13N (designed binder)
chain: B1 chain with Y13N, Y88K
  apparent Kd (screen): 446 pM

B8: E34M (designed binder)
chain: B1 chain with E34M, Y88K
  apparent Kd (screen): 446 pM

B9: E104M (designed binder)
chain: B1 chain with Y88K, E104M
  apparent Kd (screen): 869 pM

B10: K88R (designed binder)
chain: B1 chain with Y88R
  apparent Kd (screen): 490 pM

B11: E3R (designed binder)
chain: B1 chain with E3R, Y88K
  apparent Kd (screen): 1400 pM

B12: L28F (designed binder)
chain: B1 chain with L28F, Y88K
  apparent Kd (screen): 446 pM

B13: E19I (designed binder)
chain: B1 chain with E19I, Y88K
  apparent Kd (screen): 869 pM

B14: R96P (designed binder)
chain: B1 chain with Y88K, R96P
  apparent Kd (screen): 1270 pM

B15: R65L (designed binder)
chain: B1 chain with R65L, Y88K
  apparent Kd (screen): 1050 pM

B16: K69Q (designed binder)
chain: B1 chain with K69Q, Y88K
  apparent Kd (screen): 446 pM

B17: A10E (designed binder)
chain: B1 chain with A10E, Y88K
  apparent Kd (screen): 1270 pM

B18: L99N (designed binder)
chain: B1 chain with Y88K, L99N
  apparent Kd (screen): 6430 pM

B19: E78S (designed binder)
chain: B1 chain with E78S, Y88K
  apparent Kd (screen): 1540 pM

B20: Y70T (designed binder)
chain: B1 chain with Y70T, Y88K
  apparent Kd (screen): 7070 pM

B21: E37G (designed binder)
chain: B1 chain with E37G, Y88K
  apparent Kd (screen): 446 pM

B22: K18R (designed binder)
chain: B1 chain with K18R, Y88K
  apparent Kd (screen): 790 pM

B23: Q84E (designed binder)
chain: B1 chain with Q84E, Y88K
  apparent Kd (screen): 4390 pM

B24: A90I (designed binder)
chain: B1 chain with Y88K, A90I
  apparent Kd (screen): 1400 pM

B25: A47E (designed binder)
chain: B1 chain with A47E, Y88K
  apparent Kd (screen): 80.2 pM

B26: K27D (designed binder)
chain: B1 chain with K27D, Y88K
  apparent Kd (screen): 956 pM

B27: E89G (designed binder)
chain: B1 chain with Y88K, E89G
  apparent Kd (screen): 1400 pM

B28: T97Y (designed binder)
chain: B1 chain with Y88K, T97Y
  apparent Kd (screen): 539 pM

B29: A36T (designed binder)
chain: B1 chain with A36T, Y88K
  apparent Kd (screen): 1690 pM

B30: Q84F (designed binder)
chain: B1 chain with Q84F, Y88K
  apparent Kd (screen): 5840 pM

B31: F39N (designed binder)
chain: B1 chain with F39N, Y88K
  apparent Kd (screen): 3300 pM

B32: K31I (designed binder)
chain: B1 chain with K31I, Y88K
  apparent Kd (screen): 869 pM

B33: S77R (designed binder)
chain: B1 chain with S77R, Y88K
  apparent Kd (screen): 1860 pM

B34: K18N (designed binder)
chain: B1 chain with K18N, Y88K
  apparent Kd (screen): 539 pM

B35: E78L (designed binder)
chain: B1 chain with E78L, Y88K
  apparent Kd (screen): 790 pM

B36: Y101G (designed binder)
chain: B1 chain with Y88K, Y101G
  apparent Kd (screen): 446 pM

B37: E89S (designed binder)
chain: B1 chain with Y88K, E89S
  apparent Kd (screen): 490 pM

B38: K8P (designed binder)
chain: B1 chain with K8P, Y88K
  apparent Kd (screen): 3630 pM

B39: K85Q (designed binder)
chain: B1 chain with K85Q, Y88K
  apparent Kd (screen): 539 pM

B40: D53K (designed binder)
chain: B1 chain with D53K, Y88K
  apparent Kd (screen): 208 pM

B41: E34H (designed binder)
chain: B1 chain with E34H, Y88K
  apparent Kd (screen): 446 pM

B42: K107G (designed binder)
chain: B1 chain with Y88K, K107G
  apparent Kd (screen): 1050 pM

B43: L43K (designed binder)
chain: B1 chain with L43K, Y88K
  apparent Kd (screen): 869 pM

B44: A46Y (designed binder)
chain: B1 chain with A46Y, Y88K
  apparent Kd (screen): 490 pM

B45: L28E (designed binder)
chain: B1 chain with L28E, Y88K
  apparent Kd (screen): 539 pM

B46: K69W (designed binder)
chain: B1 chain with K69W, Y88K
  apparent Kd (screen): 11400 pM

B47: Y70M (designed binder)
chain: B1 chain with Y70M, Y88K
  apparent Kd (screen): 6430 pM

B48: R38E (designed binder)
chain: B1 chain with R38E, Y88K
  apparent Kd (screen): 2730 pM

B49: E62P (designed binder)
chain: B1 chain with E62P, Y88K
  apparent Kd (screen): 15200 pM

B50: E22V (designed binder)
chain: B1 chain with E22V, Y88K
  apparent Kd (screen): 1160 pM

B51: K23V (designed binder)
chain: B1 chain with K23V, Y88K
  apparent Kd (screen): 869 pM

B52: K100S (designed binder)
chain: B1 chain with Y88K, K100S
  apparent Kd (screen): 653 pM

B53: E86Q (designed binder)
chain: B1 chain with E86Q, Y88K
  apparent Kd (screen): 446 pM

B54: K68M (designed binder)
chain: B1 chain with K68M, Y88K
  apparent Kd (screen): 1270 pM

B55: E103V (designed binder)
chain: B1 chain with Y88K, E103V
  apparent Kd (screen): 539 pM

B56: L25E (designed binder)
chain: B1 chain with L25E, Y88K
  apparent Kd (screen): 2730 pM

B57: K69L (designed binder)
chain: B1 chain with K69L, Y88K
  apparent Kd (screen): 446 pM

B58: K17Q (designed binder)
chain: B1 chain with K17Q, Y88K
  apparent Kd (screen): 1160 pM

B59: K33Y (designed binder)
chain: B1 chain with K33Y, Y88K
  apparent Kd (screen): 593 pM
